Test: cell-surface N1, PE anti-Notch1 flow cytometry, CHO
Conditions: control: wild type

| Substance | expression_or_secretion (glycan gained) | expression_or_secretion (glycan lost) |
| --- | --- | --- |
| NOTCH1 (N1): N386T | no change | – |
| NOTCH1 (N1): T311P | – | decreases |
| NOTCH1 (N1): T349P | – | decreases |
